Our source for the activity (relative to wild type) values is US20120100530.

This data set addresses T1, EcoExo I C98S/C306S/C330T (ONLD0366) C98S/C306S/C330T (Escherichia coli) (UniProt P04995).
T1 sequence: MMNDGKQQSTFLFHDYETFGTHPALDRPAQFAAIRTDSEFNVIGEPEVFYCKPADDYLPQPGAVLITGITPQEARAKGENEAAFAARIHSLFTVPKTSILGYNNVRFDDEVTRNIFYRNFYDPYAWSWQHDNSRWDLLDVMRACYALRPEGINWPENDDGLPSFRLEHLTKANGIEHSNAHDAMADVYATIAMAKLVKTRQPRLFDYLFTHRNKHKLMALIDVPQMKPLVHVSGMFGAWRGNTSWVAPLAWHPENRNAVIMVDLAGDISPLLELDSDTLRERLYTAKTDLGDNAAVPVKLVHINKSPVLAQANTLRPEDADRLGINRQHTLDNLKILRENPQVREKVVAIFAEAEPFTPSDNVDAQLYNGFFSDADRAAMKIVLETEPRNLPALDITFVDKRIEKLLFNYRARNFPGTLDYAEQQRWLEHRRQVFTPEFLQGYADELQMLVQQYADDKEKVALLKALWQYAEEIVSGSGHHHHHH
The experiment in a line: cleavage_in_vitro. The note with it: fluorescein-dT at position 15, BHQ1 on dT at position 1; relative activity of mutants stated higher than wild type.

The substance Exo I assay DNA template gave an activity (relative to wild type) above 1.
